This is an account of results in the RNAGym collection of RNA variant scans (doi:10.7554/elife.80360).

B1: CPEB3 Ribozyme (parent)
chain: GGGGGCCACAGCAGAAGCGUUCACGUCGCGGCCCCUGUCAGAUUCUGGUGAAUCUGCGAAUUCUGCUGU

The variants in the data set derive from B1. Description: self-cleavage, relative activity (ratio to wild type); higher = more cleavage; co-transcriptional.
For GGGGGCCACAACAGAAGCGUUCACGUCGCGGCCCCUGUCAGAUUCUGGUGAAUCUGCGAAUGCUGCUGU, the self-cleavage worked out at 0.331.

For the variant GGGGGCCACACUAGAAGCGUUCACGUCGCGGCCCCUGUCAGAUUCUGGUGAAUCUGCGAAUUCUGCUGU, the self-cleavage was determined as 0.452.

GGGGGCCACACGAGAAGCGUUCACGUCGCGGCCCCUGUCAGAUUCUGGUGAAUCUGCGAAUUCUGCUGU: the self-cleavage was 0.211.

As to GGGGGCCACAACAGAAGCGUUCACGUCGCGGCCCCUGUCAGAUUCUGGUGAAUCUGCGAAUUUUGCUGU, the self-cleavage is 0.707.

On to GGGGGCCACACCAGAAGCGUUCACGUGGCGGCCCCUGUCAGAUUCUGGUGAAUCUGCGAAUUCUGCUGU, for which the self-cleavage was 0.104.

For the variant GGGGGCCACACCAGAAGCGUUCACGUCGCGGCCCCUGUUAGAUUCUGGUGAAUCUGCGAAUUCUGCUGU, the self-cleavage was 0.399.

In the case of GGGGGCCACAACAGAAGCGUUCACGUCGCGACCCCUGUCAGAUUCUGGUGAAUCUGCGAAUUCUGCUGU, the self-cleavage was 0.838.

As for GGGGGCCACAACAGAAGCGUUCACGUCGCGGCCCCUGUCAGAUUCUGGUGAAUCUGCGAAUUCUGCUGC, the self-cleavage was found to be 1.03.

Regarding GGGGGCCACACCAGAAGCGUUCACGUCGCGGCCCCUGUCAGCUUCUGGUGAAUCUGCGAAUUCUGCUGU, the self-cleavage was 0.151.

For the variant GGGGGCCACACCAGAAGCGUUCACGUCGCGGCCCCUGUCAGAUUCUGUUGAAUCUGCGAAUUCUGCUGU, the self-cleavage stood at 0.912.

Turning to GGGGGCCACACCAGAAGCUUUCACGUCGCGGCCCCUGUCAGAUUCUGGUGAAUCUGCGAAUUCUGCUGU, the self-cleavage stood at 0.158.

For GGGGGCCACACCAGAAGCAUUCACGUCGCGGCCCCUGUCAGAUUCUGGUGAAUCUGCGAAUUCUGCUGU, the self-cleavage is 0.0742.

GGGGGCCACAACAGAAGCGUGCACGUCGCGGCCCCUGUCAGAUUCUGGUGAAUCUGCGAAUUCUGCUGU: the self-cleavage was 0.285.

Consider GGGGGCCACACCAGAAGCGUUCACGUCGCGGCCCCUGUCAGAUUCUGGUGAAUAUGCGAAUUCUGCUGU, for which the self-cleavage was 0.252.

For the variant GGGGGCCACACCAGAAGCGUUCACGUCGCGCCCCCUGUCAGAUUCUGGUGAAUCUGCGAAUUCUGCUGU, the self-cleavage was found to be 0.167.

For the variant GGGGGCCACACCAGAAGCGUUCACGUCGCGUCCCCUGUCAGAUUCUGGUGAAUCUGCGAAUUCUGCUGU, the self-cleavage turned out to be 0.536.

With GGGGGCCACAACAGAAGCGUUCACGUCGCGGCCCCUGUCAGAUUUUGGUGAAUCUGCGAAUUCUGCUGU, the self-cleavage worked out at 0.906.

In the case of GGGGGCCACAACAGAAGCGUUCACGUCGCGGCCCCUGUCAGAUUAUGGUGAAUCUGCGAAUUCUGCUGU, the self-cleavage worked out at 0.821.

Regarding GGGGGCCACACCAGGAGCGUUCACGUCGCGGCCCCUGUCAGAUUCUGGUGAAUCUGCGAAUUCUGCUGU, the self-cleavage amounted to 0.627.

For GGGGGCCACAACAGAAGCGAUCACGUCGCGGCCCCUGUCAGAUUCUGGUGAAUCUGCGAAUUCUGCUGU, the self-cleavage worked out at 0.157.

GGGGGCCACACCAGAAGCGUUCACGUCGCGGCCCCUGUCAGAUUCUGGUCAAUCUGCGAAUUCUGCUGU: the self-cleavage was determined as 0.748.

Take GGGGGCCACACCAGAAGCGUUCACGUCGCGGCCCCUGUCAGAUUCUGGUGAAUCUGCGGAUUCUGCUGU: the self-cleavage was 0.718.

With GGGGGCCACAACAGAAGCGUUCACGUCGCGGCCCCUGUCAGAUUCUGGCGAAUCUGCGAAUUCUGCUGU, the self-cleavage was 0.903.

On to GGGGGCCACAACAGAAGCGUUCACGUCGCGGCCCCUGUCAGAUACUGGUGAAUCUGCGAAUUCUGCUGU, for which the self-cleavage is 0.697.

Take GGGGGCCACACCAGAAGCGUUCACGUCGCGGCCCCUGUCACAUUCUGGUGAAUCUGCGAAUUCUGCUGU: the self-cleavage amounted to 0.257.

On to GGGGGCCACACCAGAAGCGUUCACGUCGCGGCCCCUGUCAUAUUCUGGUGAAUCUGCGAAUUCUGCUGU, for which the self-cleavage turned out to be 0.238.

For GGGGGCCACAACAGAAGCGUUCACGUCGCGGCCCCUGUCAGAUUCUGGUGAAUCUCCGAAUUCUGCUGU, the self-cleavage stood at 0.437.

Take GGGGGCCACACCAGAAGCGUUCACGUCGCGGCCCAUGUCAGAUUCUGGUGAAUCUGCGAAUUCUGCUGU: the self-cleavage is 0.205.

Regarding GGGGGCCACACCAGAAGCGUUCACGUCGCGGCCCUUGUCAGAUUCUGGUGAAUCUGCGAAUUCUGCUGU, the self-cleavage turned out to be 0.758.

On to GGGGGCCACACCAGAAGGGUUCACGUCGCGGCCCCUGUCAGAUUCUGGUGAAUCUGCGAAUUCUGCUGU, for which the self-cleavage was determined as 0.0784.

As for GGGGGCCACAACAGAAGCGUUCACGUCGCGGCCCCUGUCAGAUUCUGGUGAAUCUGCGAAUUCUGAUGU, the self-cleavage was 0.818.

Regarding GGGGGCCACAACAGAAGCGUUCACGUCGCGGCCCCUGUCAGAUUCUGGUGAAUCUGCGAAUUCUGGUGU, the self-cleavage was 0.917.

Consider GGGGGCCACAACAGAAGCGUUCACGUCUCGGCCCCUGUCAGAUUCUGGUGAAUCUGCGAAUUCUGCUGU, for which the self-cleavage stood at 0.171.

Regarding GGGGGCCACAACAGAAGCGUUCACGUCCCGGCCCCUGUCAGAUUCUGGUGAAUCUGCGAAUUCUGCUGU, the self-cleavage was found to be 0.157.

GGGGGCCACAACAGAAGCGUUCACGUCACGGCCCCUGUCAGAUUCUGGUGAAUCUGCGAAUUCUGCUGU: the self-cleavage was 0.16.

Consider GGGGGCCACACCAGAAGCGUUGACGUCGCGGCCCCUGUCAGAUUCUGGUGAAUCUGCGAAUUCUGCUGU, for which the self-cleavage stood at 0.18.

In the case of GGGGGCCACACCAGAAGCGUUCACGUCGCGGCUCCUGUCAGAUUCUGGUGAAUCUGCGAAUUCUGCUGU, the self-cleavage came out at 0.827.

Consider GGGGGCCACACCAGAAGCGUUCACGUCGCGGCACCUGUCAGAUUCUGGUGAAUCUGCGAAUUCUGCUGU, for which the self-cleavage amounted to 0.547.

For the variant GGGGGCCACAACAGAAGCGUUCACGUCGCGGCCCCUGUCAGAUUCUGGUGAAUCCGCGAAUUCUGCUGU, the self-cleavage turned out to be 0.493.
